Measured values as given in patent publication US20240327534A1 (HARPOON THERAPEUTICS, published 2024).

T1: human BCMA protein (human, UniProt Q02223 1-54, limits assumed)
T1 sequence: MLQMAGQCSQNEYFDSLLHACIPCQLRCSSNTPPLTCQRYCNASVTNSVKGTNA

T2: human BCMA on BCMA expressing cell lines (human, UniProt Q02223 1-184)
T2 sequence: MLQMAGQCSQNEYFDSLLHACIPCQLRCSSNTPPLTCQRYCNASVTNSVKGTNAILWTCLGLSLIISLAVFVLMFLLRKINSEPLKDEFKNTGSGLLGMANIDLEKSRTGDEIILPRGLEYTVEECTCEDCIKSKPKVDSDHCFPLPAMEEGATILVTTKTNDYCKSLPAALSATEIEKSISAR


Assays:
[1] = target: T1, human BCMA protein; experiment: affinity to human BCMA protein, method not stated
[2] = target: T2, human BCMA on BCMA expressing cell lines; experiment: cell-based or functional assay

Binder	Kd [1] [nM]	TDCC EC50 (EJM cells) [2] [nM]
BCMA targeting trispecific protein 253BH10 (other, not shown: large carriers; small tags and cut ends, trispecific; described as a molecule with the parental CDRs; also called BH253) VHH: QVQLVESGGGLVQPGESLRLSCAASTNIFSISPMGWYRQAPGKQRELVAAIHGFSTLYADSVKGRFTISRDNAKNTIYLQMNSLKPEDTAVYYCNKVPWGDYHPRNVYWGQGTQVTVSS	27.7	0.0529
BCMA targeting trispecific protein 01A01 (other, not shown: large carriers; small tags and cut ends, trispecific) VHH: EVQLVESGGGLVQPGRSLTLSCAASTDIFSISPMGWYRQAPGKQRELVAAIHGGSTLYADSVKGRFTISRDNAKNSIYLQMNSLRPEDTALYYCNKVPWGDYHPRNVAWGQGTQVTVSS	21.3	0.0264
BCMA targeting trispecific protein 01A02 (other, not shown: large carriers; small tags and cut ends, trispecific) VHH: EVQLVESGGGLVQPGRSLTLSCAASTNIFSSSPMGWYRQAPGKQRELVAAINGFSTLYADSVKGRFTISRDNAKNSIYLQMNSLRPEDTALYYCNKVPWGDYHPRNVHWGQGTQVTVSS	21.5	0.0218
BCMA targeting trispecific protein 01A03 (other, not shown: large carriers; small tags and cut ends, trispecific) VHH: EVQLVESGGGLVQPGRSLTLSCAASTNIFSISPGGWYRQAPGKQRELVAAIHGSSTLYADSVKGRFTISRDNAKNSIYLQMNSLRPEDTALYYCNKVPWGDYHPRNVYWGQGTQVTVSS	30.8	0.0461
BCMA targeting trispecific protein 01A04 (other, not shown: large carriers; small tags and cut ends, trispecific) VHH: EVQLVESGGGLVQPGRSLTLSCAASTNIFMISPMGWYRQAPGKQRELVAAIHGDSTLYADSVKGRFTISRDNAKNSIYLQMNSLRPEDTALYYCNKVPWGRYHPRNVYWGQGTQVTVSS	37.5	0.159
BCMA targeting trispecific protein 01A06 (other, trispecific; not shown: the C-terminal 6xHis tag follows those missing domains and is left out) VHH: EVQLVESGGGLVQPGRSLTLSCAASTNIFSIRPMGWYRQAPGKQRELVAAIHGFSTVYADSVKGRFTISRDNAKNSIYLQMNSLRPEDTALYYCNKVPWGDYHPRNVYWGQGTQVTVSS	15.8	0.011
BCMA targeting trispecific protein 01A07 (other, trispecific; not shown: the C-terminal His6 follows those missing domains and is left out) VHH: EVQLVESGGGLVQPGRSLTLSCAASTNISSISPMGWYRQAPGKQRELVAAIHGTSTLYADSVKGRFTISRDNAKNSIYLQMNSLRPEDTALYYCNKVPWGDYHPGNVYWGQGTQVTVSS	6.95	0.00249
BCMA targeting trispecific protein 01A08 (other, not shown: large carriers; small tags and cut ends, trispecific) VHH: EVQLVESGGGLVQPGRSLTLSCAASTNIFSSSPMGWYRQAPGKQRELVAAIHGESTLYADSVKGRFTISRDNAKNSIYLQMNSLRPEDTALYYCNKVPWGDYHPRKVYWGQGTQVTVSS	11.7	0.00425
BCMA targeting trispecific protein 01A09 (other, not shown: large carriers; small tags and cut ends, trispecific) VHH: EVQLVESGGGLVQPGRSLTLSCAASTNIFSITPMGWYRQAPGKQRELVAAIHGRSTLYADSVKGRFTISRDNAKNSIYLQMNSLRPEDTALYYCNKVPWGSYHPRNVYWGQGTQVTVSS	23.9	0.0484
BCMA targeting trispecific protein 01B01 (other, not shown: large carriers; small tags and cut ends, trispecific) VHH: EVQLVESGGGLVQPGRSLTLSCAASTNIPSISPMGWYRQAPGKQRELVAAIHGESTLYADSVKGRFTISRDNAKNSIYLQMNSLRPEDTALYYCNKVPWGDYHPRNVAWGQGTQVTVSS	19.9	0.0195
BCMA targeting trispecific protein 01B04 (other, trispecific; not shown: anti-albumin domain, anti-CD3 domain and the linkers of the trispecific (TriTAC) chain; the C-terminal 6xHis tag follows these missing domains and is left out) VHH: EVQLVESGGGLVQPGRSLTLSCAASTNDFSISPMGWYRQAPGKQRELVAAIHGKSTLYADSVKGRFTISRDNAKNSIYLQMNSLRPEDTALYYCNKVPWGDYHPRNVKWGQGTQVTVSS	18.6	0.0161
BCMA targeting trispecific protein 01B07 (other, not shown: large carriers; small tags and cut ends, trispecific) VHH: EVQLVESGGGLVQPGRSLTLSCAASTNIFSRSPMGWYRQAPGKQRELVAAIHGNSTLYADSVKGRFTISRDNAKNSIYLQMNSLRPEDTALYYCNKVPWGIYHPRNVYWGQGTQVTVSS	43.9	0.174
BCMA targeting trispecific protein 01B08 (other, not shown: large carriers; small tags and cut ends, trispecific) VHH: EVQLVESGGGLVQPGRSLTLSCAASTNIESISPMGWYRQAPGKQRELVAAIHGSSTLYADSVKGRFTISRDNAKNSIYLQMNSLRPEDTALYYCNKVPWGRYHPRNVYWGQGTQVTVSS	25.6	0.0876
BCMA targeting trispecific protein 01B09 (other, not shown: large carriers; small tags and cut ends, trispecific) VHH: EVQLVESGGGLVQPGRSLTLSCAASSNIFSISPMGWYRQAPGKQRELVAAIHGSSTLYADSVKGRFTISRDNAKNSIYLQMNSLRPEDTALYYCNKVPWGDYHPGNVYWGQGTQVTVSS	11.2	0.00527
BCMA targeting trispecific protein 01B12 (other, not shown: large carriers; small tags and cut ends, trispecific) VHH: EVQLVESGGGLVQPGRSLTLSCAASTNIFSTSPMGWYRQAPGKQRELVAAIHGFQTLYADSVKGRFTISRDNAKNSIYLQMNSLRPEDTALYYCNKVPWGDYHPRNVVWGQGTQVTVSS	20.7	0.0273
BCMA targeting trispecific protein 01C02 (other, trispecific; not shown: The C-terminal 6xHis tag is left out because it follows these missing domains) VHH: EVQLVESGGGLVQPGRSLTLSCAASTNIESISPMGWYRQAPGKQRELVAAIHGNSTLYADSVKGRFTISRDNAKNSIYLQMNSLRPEDTALYYCNKVPWGRYHPRNVYWGQGTQVTVSS	20	0.0373
BCMA targeting trispecific protein 01C05 (other, not shown: large carriers; small tags and cut ends, trispecific) VHH: EVQLVESGGGLVQPGRSLTLSCAASTNIFSSSPMGWYRQAPGKQRELVAAIHGFKTLYADSVKGRFTISRDNAKNSIYLQMNSLRPEDTARYYCNKVPWGDYHPGNVYWGQGTQVTVSS	6.09	0.00307
BCMA targeting trispecific protein 01C07 (other, not shown: large carriers; small tags and cut ends, trispecific) VHH: EVQLVESGGGLVQPGRSLTLSCAASTNIFSIYPMGWYRQAPGKQRELVAAIHGFSTYYADSVKGRFTISRDNAKNSIYLQMNSLRPEDTALYYCNKVPWGSYHPRNVYWGQGTQVTVSS	19.8	0.0833
BCMA targeting trispecific protein 01D02 (other, trispecific; not shown: the C-terminal His6 follows those missing domains and is left out) VHH: EVQLVESGGGLVQPGRSLTLSCAASTNIVSISPMGWYRQAPGKQRELVAAIHGKSTLYADSVKGRFTISRDNAKNSIYLQMNSLRPEDTALYYCNKVPWGDYHPGNVYWGQGTQVTVSS	7.35	0.00225
BCMA targeting trispecific protein 01H06 (other, not shown: large carriers; small tags and cut ends) VHH: EVQLVESGGGLVQPGRSLTLSCAASTSDFSISPMGWYRQAPGKQRELVAAIHGFETLYADSVKGRFTISRDNAKNSIYLQMNSLRPEDTALYYCNKVPWGDYHPGNVYWGQGTQVTVSS		0.001

Next, values leading:

Kd [1] [nM]	TDCC EC50 (EJM cells) [2] [nM]	Binder
17	0.0151	BCMA targeting trispecific protein 01A05 (other, trispecific; not shown: anti-albumin domain, anti-CD3 domain and the linkers of the trispecific (TriTAC) format) VHH: EVQLVESGGGLVQPGRSLTLSCAASTNIFSSSPMGWYRQAPGKQRELVAAIHGFSTLYADSVKGRFTISRDNAKNSIYLQMNSLRPEDTALYYCNKVPWGDYHPRNVYWGQGTQVTVSS
18.8	0.359	BCMA targeting trispecific protein 01B02 (other, trispecific; not shown: anti-albumin domain, anti-CD3 domain and the linkers of the trispecific; the C-terminal His6 that follows them is left out) VHH: EVQLVESGGGLVQPGRSLTLSCAASTNITSISPMGWYRQAPGKQRELVAAISGFSTLYADSVKGRFTISRDNAKNSIYLQMNSLRPEDTALYYCNEVPWGDYHPRNVYWGQGTQVTVSS
26.2	0.0964	BCMA targeting trispecific protein 01B03 (other, not shown: large carriers; small tags and cut ends, trispecific) VHH: EVQLVESGGGLVQPGRSLTLSCAASTNIFSKSPMGWYRQAPGKQRELVAAIHGKSTLYADSVKGRFTISRDNAKNSIYLQMNSLRPEDTALYYCNKVPWGDYHPRNVVWGQGTQVTVSS
6.52	0.00301	BCMA targeting trispecific protein 01B05 (other, not shown: large carriers; small tags and cut ends, trispecific) VHH: EVQLVESGGGLVQPGRSLTLSCAASTNITSISPMGWYRQAPGKQRELVAAIHGFETLYADSVKGRFTISRDNAKNSIYLQMNSLRPEDTALYYCNKVPWGDYHPGNVYWGQGTQVTVSS
9.1	0.00697	BCMA targeting trispecific protein 01B06 (other, trispecific; not shown: the C-terminal 6xHis tag follows those missing domains and is left out) VHH: EVQLVESGGGLVQPGRSLTLSCAASTNIFSISPMGWYRQAPGKQRELVAAIHGDSTLYADSVKGRFTISRDNAKNSIYLQMNSLRPEDTALYYCNKVPWGEYHPRNVYWGQGTQVTVSS
6.52	0.00133	BCMA targeting trispecific protein 01C01 (other, not shown: large carriers; small tags and cut ends, trispecific) VHH: EVQLVESGGGLVQPGRSLTLSCAASTNIVSISPMGWYRQAPGKQRELVAAIHGHSTLYADSVKGRFTISRDNAKNSIYLQMNSLRPEDTALYYCNKVPWGDYHPGNVYWGQGTQVTVSS
21.6	0.0175	BCMA targeting trispecific protein 01C04 (other, trispecific; not shown: anti-albumin domain, anti-CD3 domain and the linkers of the trispecific (TriTAC) chain; the C-terminal 6xHis tag follows these missing domains and is left out) VHH: EVQLVESGGGLVQPGRSLTLSCAASTNIPSISPMGWYRQAPGKQRELVAAIHGDSTLYADSVKGRFTISRDNAKNSIYLQMNSLRPEDTALYYCNKVPWGDYHPRNVYWGQGTQVTVSS
18.8	0.0251	BCMA targeting trispecific protein 01C06 (other, not shown: large carriers; small tags and cut ends, trispecific) VHH: EVQLVESGGGLVQPGRSLTLSCAASTNIFSISPMGWYRQAPGKQRELVAAIHGDSTLYADSVKGRFTISRDNAKNSIYLQMNSLRPEDTALYYCNKVPWGKYHPRNVYWGQGTQVTVSS
28.3	0.0457	BCMA targeting trispecific protein 01C08 (other, not shown: large carriers; small tags and cut ends, trispecific) VHH: EVQLVESGGGLVQPGRSLTLSCAASTNIFSNSPMGWYRQAPGKQRELVAAIHGGSTLYADSVKGRFTISRDNAKNSIYLQMNSLRPEDTALYYCNKVPWGDYHPRNVHWGQGTQVTVSS
46.4	0.208	BCMA targeting trispecific protein 01C10 (other, not shown: large carriers; small tags and cut ends, trispecific) VHH: EVQLVESGGGLVQPGRSLTLSCAASTNISSISPMGWYRQAPGKQRELVAAIHGFSTLYADSVKGRFTISRDNAKNSIYLQMNSLRPEDTALYYCNKVPWGYYHPRNVYWGQGTQVTVSS
